Measured values from article PMC3506622.

Assays:
[1] = biological target: bcPadR1, PadR-like transcriptional regulator from Bacillus cereus ATCC 14579 (product of gene locus BC4206) (Bacillus cereus ATCC 14579); experiment: SEC; analytical gel filtration, Superdex 200 PC 3.2/30; 20 mM Tris-HCl pH 8.0, 200 mM NaCl, 1 mM EDTA, 1 mM dithiothreitol; apparent molecular weight against five marker proteins
[2] = biological target: bcPadR2, PadR-like transcriptional regulator from Bacillus cereus ATCC 10987 (product of gene locus BCE3449) (Bacillus cereus ATCC 10987); experiment: as above

stoichiometry N [2]	Substance	stoichiometry N [1]
	bcPadR1, PadR-like transcriptional regulator from Bacillus cereus ATCC 14579 (product of gene locus BC4206) (natural protein)	2
2	bcPadR2, PadR-like transcriptional regulator from Bacillus cereus ATCC 10987 (product of gene locus BCE3449) (natural protein)	
